Data published in publication PMC7368059.

Target: full length La Crosse virus L protein (RNA-dependent RNA polymerase) (La Crosse virus (strain LACV/mosquito/1978)) (UniProt A5HC98)
Assay: crystal structure; LACV-L FL with 3' (1-16) and 5' (9-16) vRNA at 5 mg/ml, 5' (1-10) vRNA soaked in; 100 mM Tris pH 8.0, 100 mM NaCl, 8% PEG 4000; space group C2, 4.0 Å; two L protein complexes per asymmetric unit

Q: For “full length La Crosse virus L protein (RNA-dependent RNA polymerase) (from UniProt A5HC98 1-2263) (enzyme)”, which stoichiometry N is on record?
A: Its stoichiometry N is 2.
